# US20090081786A1, “Peptide sequences for modulation of protein kinase C” (priority 2006, published 2009)
# Molecular target: annexin V endogenous in CHO-K1 cells (Homo sapiens (Human)) (UniProt P08758)
# Assay: co-immunoprecipitation from CHO cells stimulated with 10 nM PMA, FIG. 2
substance,measurement,value
δ-PKC endogenous in CHO-K1 cells (from UniProt P28867 1-674) (enzyme),fold increase in the amount of complex after PMA stimulation (against before stimulation),4 fold
